Biological target: human epidermal growth factor receptor 1 (EGFR1) (human) (UniProt P00533)
Test: tritium-labelled compound 5 µg/ml, 3 h +37 °C, FaDu cells, scintillation counting of lysate; internalized plus surface-bound; mean of three ± S.D.; negative control

% internalized/100000 cells (% internalized/100000 cells): 0.01
Substance: Control-mAb (omalizumab, anti-IgE) (antibody)
